Reference: patent publication US20250250330A1 (REVOPSIS THERAPEUTICS, published 2025)

T1: His-tagged recombinant human ANG-2 (AcroBiosystems, Cat #AN2-H52H4) (human, UniProt O15123 275-496)
T1 construct: also called rhANG-2; rhANG-2-His; not shown: His tag
T1 sequence (looked up): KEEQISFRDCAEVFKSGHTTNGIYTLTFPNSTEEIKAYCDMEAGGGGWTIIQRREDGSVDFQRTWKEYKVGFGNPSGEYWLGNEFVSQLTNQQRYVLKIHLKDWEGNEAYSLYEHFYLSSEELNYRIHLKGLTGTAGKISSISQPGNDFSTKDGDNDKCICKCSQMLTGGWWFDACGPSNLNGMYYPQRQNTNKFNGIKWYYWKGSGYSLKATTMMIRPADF

B1: RP-014_VEGF-A_Sab (Fab, V domains shown)
VH: QVQLVQSGAEVKKPGASVKVSCKASGYTFSIYTIHWVRQAPGQGLEWMGGINPYNGNTKYAQKFQGRVTMTRDTSISTAYMELSRLRSDDTAVYYCAKAPAVFWWTGLDYWGQGTLVTVSS
VL: QPVLHQPPAMSSALGTTIRLTCTLRNDHDIGVYSVYWYQQRPGHPPRFLLRYFSQSDKSQGPQVPPRFSGSKDVARNRGYLSISELQPEDEAMYYCAMGARSSVTHVFGSGTQLTVLS
notes: also called anti-VEGF-A Sab; not shown: CH1 domain
B2: RP-017_ANG-2_Sab (Fab, V domains shown)
VH: EVQLVESGGGLVKPGGSLRLSCAASGFTFSSYGMHWVRQAPGKGLEWVAGISADSGDKNYADSVKGRFTISRDNAKNSLYLQMNSLRAEDTAVYYCAKEFISWIYTFDYLDYWGQGTLVTVSS
VL: B1 VL
notes: also called anti-ANG-2 Sab; not shown: CH1 domain

Columns and labels:
[1] = molecular target: T2, Recombinant human VEGF165 (Peprotech, Cat #100-20) (human, UniProt P15692-4 27-191); experiment: ELISA on rhVEGF165; biotinylated anti-VpreB antibody and streptavidin-HRP detection
T2 construct: Bought protein; also called rhVEGF165; rh VEGF165
T2 sequence (P15692 other isoform, or with tags, fused parts or gaps limits assumed): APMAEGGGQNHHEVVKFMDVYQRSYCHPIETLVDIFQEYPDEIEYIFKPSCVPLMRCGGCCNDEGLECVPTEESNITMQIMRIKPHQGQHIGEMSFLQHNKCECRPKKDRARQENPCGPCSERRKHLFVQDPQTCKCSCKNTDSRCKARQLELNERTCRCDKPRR

[2] = molecular target: T1, His-tagged recombinant human ANG-2 …; experiment: ELISA on rhANG-2; biotinylated anti-VpreB antibody and streptavidin-HRP detection
Description: SgG1 was diluted in blocking buffer at a starting concentration of 10 nM. Sab and scSv were diluted in blocking buffer at a starting concentration of 100 nM. They were then 1:3 serial diluted.

Row | Binder | EC50 [1] | EC50 [2]
1 | B1 | 0.0063 nM | 
2 | B2 |  | 0.0485 nM
